Data reported in PMC6218797, “A Novel Thermostable GH3 β-Glucosidase from Talaromyce leycettanus with Broad Substrate Specificity and Significant Soybean Isoflavone Glycosides-Hydrolyzing Capability” (BioMed Research International, 2018).
Values belong to the molecule of their own block, whether it stands above or below them.

Columns and labels:
Bgl3B = biological target: T1, Bgl3B (Rasamsonia emersonii, UniProt A0A343J2C3); assay: pNP release at […] nm, Dixon plot; type: biochemical; conditions: substrate pNPG 3 or 4 mM; pH 4.5, 65°C, citric acid-Na2HPO4; inhibition mode not stated
T1 construct: pPIC9, secreted from Pichia pastoris GS115; N-glycosylated, about 100 kDa on SDS-PAGE
T1 sequence (A0A343J2C3 1-841): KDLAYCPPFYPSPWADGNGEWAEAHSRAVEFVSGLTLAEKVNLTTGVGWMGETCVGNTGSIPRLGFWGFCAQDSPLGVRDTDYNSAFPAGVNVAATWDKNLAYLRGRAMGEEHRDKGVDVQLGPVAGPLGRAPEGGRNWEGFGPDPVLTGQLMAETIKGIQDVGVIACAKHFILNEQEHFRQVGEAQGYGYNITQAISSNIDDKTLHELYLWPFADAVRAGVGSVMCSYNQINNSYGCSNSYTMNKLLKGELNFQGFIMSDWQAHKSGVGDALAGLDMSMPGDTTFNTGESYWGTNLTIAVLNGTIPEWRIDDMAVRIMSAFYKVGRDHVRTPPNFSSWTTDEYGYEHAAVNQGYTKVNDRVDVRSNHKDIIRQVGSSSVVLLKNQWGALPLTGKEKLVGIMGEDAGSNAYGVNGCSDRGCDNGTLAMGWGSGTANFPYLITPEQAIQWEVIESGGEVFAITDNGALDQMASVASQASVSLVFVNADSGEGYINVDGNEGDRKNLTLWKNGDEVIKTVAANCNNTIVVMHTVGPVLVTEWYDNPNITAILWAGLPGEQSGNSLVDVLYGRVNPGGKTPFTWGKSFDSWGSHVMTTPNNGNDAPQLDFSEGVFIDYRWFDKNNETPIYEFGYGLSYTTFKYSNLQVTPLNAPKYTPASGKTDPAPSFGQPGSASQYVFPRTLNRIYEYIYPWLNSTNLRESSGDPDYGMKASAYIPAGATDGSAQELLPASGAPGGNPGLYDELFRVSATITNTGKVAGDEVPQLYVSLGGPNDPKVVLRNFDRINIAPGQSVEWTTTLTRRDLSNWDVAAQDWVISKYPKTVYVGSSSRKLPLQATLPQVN

purified protein = substrate: O=[N+]([O-])c1ccc(O[C@@H]2O[C@H](CO)[C@@H](O)[C@H](O)[C@H]2O)cc1; assay: purified protein; conditions: pH 4.5, 65°C, 5 min, 0.2-1.5 mM substrate

Ki (Bgl3B): 7.1 mM
Molecule: OC[C@H]1OC(O)[C@H](O)[C@@H](O)[C@@H]1O (stereo partly drawn) [glucose]

B1: Bgl3B (Rasamsonia emersonii) (protein)
chain: T1 sequence (A0A343J2C3 1-841)
Km (purified protein): 1030 µM | kcat (purified protein): 714 s⁻¹
